Earlier results in publication PMC2884013.

Molecular target: Glu78 (UniProt position 78, RISTVEHLNAA)
Experiment: kinetics
Details: Zn2+-bound wild-type enzyme

Substance: UDP-3-O-(R-3-hydroxymyristoyl)-N-acetylglucosamine deacetylase (LpxC, EcLpxC) (Escherichia coli)
- pKa: 6.2 ± 0.2
